In one assay the target is wdfy3_human WDFY3 (UniProt Q8IZQ1).
The next assay has as its target mlp3b_human MAP1LC3B (UniProt Q9GZQ8).
Assay [1] addresses mlp3c_human MAP1LC3C (UniProt Q9BXW4).
For assay [2] the target is unchanged. This is another data set of the same source.

Sequence of UniProt Q9BXW4 (Q9BXW4 whole entry): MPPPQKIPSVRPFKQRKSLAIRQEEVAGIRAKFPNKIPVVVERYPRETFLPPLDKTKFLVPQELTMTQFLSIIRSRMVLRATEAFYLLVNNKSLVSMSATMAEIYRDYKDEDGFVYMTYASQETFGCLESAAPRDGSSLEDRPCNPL
Sequence of UniProt Q8IZQ1 (Q8IZQ1 whole entry): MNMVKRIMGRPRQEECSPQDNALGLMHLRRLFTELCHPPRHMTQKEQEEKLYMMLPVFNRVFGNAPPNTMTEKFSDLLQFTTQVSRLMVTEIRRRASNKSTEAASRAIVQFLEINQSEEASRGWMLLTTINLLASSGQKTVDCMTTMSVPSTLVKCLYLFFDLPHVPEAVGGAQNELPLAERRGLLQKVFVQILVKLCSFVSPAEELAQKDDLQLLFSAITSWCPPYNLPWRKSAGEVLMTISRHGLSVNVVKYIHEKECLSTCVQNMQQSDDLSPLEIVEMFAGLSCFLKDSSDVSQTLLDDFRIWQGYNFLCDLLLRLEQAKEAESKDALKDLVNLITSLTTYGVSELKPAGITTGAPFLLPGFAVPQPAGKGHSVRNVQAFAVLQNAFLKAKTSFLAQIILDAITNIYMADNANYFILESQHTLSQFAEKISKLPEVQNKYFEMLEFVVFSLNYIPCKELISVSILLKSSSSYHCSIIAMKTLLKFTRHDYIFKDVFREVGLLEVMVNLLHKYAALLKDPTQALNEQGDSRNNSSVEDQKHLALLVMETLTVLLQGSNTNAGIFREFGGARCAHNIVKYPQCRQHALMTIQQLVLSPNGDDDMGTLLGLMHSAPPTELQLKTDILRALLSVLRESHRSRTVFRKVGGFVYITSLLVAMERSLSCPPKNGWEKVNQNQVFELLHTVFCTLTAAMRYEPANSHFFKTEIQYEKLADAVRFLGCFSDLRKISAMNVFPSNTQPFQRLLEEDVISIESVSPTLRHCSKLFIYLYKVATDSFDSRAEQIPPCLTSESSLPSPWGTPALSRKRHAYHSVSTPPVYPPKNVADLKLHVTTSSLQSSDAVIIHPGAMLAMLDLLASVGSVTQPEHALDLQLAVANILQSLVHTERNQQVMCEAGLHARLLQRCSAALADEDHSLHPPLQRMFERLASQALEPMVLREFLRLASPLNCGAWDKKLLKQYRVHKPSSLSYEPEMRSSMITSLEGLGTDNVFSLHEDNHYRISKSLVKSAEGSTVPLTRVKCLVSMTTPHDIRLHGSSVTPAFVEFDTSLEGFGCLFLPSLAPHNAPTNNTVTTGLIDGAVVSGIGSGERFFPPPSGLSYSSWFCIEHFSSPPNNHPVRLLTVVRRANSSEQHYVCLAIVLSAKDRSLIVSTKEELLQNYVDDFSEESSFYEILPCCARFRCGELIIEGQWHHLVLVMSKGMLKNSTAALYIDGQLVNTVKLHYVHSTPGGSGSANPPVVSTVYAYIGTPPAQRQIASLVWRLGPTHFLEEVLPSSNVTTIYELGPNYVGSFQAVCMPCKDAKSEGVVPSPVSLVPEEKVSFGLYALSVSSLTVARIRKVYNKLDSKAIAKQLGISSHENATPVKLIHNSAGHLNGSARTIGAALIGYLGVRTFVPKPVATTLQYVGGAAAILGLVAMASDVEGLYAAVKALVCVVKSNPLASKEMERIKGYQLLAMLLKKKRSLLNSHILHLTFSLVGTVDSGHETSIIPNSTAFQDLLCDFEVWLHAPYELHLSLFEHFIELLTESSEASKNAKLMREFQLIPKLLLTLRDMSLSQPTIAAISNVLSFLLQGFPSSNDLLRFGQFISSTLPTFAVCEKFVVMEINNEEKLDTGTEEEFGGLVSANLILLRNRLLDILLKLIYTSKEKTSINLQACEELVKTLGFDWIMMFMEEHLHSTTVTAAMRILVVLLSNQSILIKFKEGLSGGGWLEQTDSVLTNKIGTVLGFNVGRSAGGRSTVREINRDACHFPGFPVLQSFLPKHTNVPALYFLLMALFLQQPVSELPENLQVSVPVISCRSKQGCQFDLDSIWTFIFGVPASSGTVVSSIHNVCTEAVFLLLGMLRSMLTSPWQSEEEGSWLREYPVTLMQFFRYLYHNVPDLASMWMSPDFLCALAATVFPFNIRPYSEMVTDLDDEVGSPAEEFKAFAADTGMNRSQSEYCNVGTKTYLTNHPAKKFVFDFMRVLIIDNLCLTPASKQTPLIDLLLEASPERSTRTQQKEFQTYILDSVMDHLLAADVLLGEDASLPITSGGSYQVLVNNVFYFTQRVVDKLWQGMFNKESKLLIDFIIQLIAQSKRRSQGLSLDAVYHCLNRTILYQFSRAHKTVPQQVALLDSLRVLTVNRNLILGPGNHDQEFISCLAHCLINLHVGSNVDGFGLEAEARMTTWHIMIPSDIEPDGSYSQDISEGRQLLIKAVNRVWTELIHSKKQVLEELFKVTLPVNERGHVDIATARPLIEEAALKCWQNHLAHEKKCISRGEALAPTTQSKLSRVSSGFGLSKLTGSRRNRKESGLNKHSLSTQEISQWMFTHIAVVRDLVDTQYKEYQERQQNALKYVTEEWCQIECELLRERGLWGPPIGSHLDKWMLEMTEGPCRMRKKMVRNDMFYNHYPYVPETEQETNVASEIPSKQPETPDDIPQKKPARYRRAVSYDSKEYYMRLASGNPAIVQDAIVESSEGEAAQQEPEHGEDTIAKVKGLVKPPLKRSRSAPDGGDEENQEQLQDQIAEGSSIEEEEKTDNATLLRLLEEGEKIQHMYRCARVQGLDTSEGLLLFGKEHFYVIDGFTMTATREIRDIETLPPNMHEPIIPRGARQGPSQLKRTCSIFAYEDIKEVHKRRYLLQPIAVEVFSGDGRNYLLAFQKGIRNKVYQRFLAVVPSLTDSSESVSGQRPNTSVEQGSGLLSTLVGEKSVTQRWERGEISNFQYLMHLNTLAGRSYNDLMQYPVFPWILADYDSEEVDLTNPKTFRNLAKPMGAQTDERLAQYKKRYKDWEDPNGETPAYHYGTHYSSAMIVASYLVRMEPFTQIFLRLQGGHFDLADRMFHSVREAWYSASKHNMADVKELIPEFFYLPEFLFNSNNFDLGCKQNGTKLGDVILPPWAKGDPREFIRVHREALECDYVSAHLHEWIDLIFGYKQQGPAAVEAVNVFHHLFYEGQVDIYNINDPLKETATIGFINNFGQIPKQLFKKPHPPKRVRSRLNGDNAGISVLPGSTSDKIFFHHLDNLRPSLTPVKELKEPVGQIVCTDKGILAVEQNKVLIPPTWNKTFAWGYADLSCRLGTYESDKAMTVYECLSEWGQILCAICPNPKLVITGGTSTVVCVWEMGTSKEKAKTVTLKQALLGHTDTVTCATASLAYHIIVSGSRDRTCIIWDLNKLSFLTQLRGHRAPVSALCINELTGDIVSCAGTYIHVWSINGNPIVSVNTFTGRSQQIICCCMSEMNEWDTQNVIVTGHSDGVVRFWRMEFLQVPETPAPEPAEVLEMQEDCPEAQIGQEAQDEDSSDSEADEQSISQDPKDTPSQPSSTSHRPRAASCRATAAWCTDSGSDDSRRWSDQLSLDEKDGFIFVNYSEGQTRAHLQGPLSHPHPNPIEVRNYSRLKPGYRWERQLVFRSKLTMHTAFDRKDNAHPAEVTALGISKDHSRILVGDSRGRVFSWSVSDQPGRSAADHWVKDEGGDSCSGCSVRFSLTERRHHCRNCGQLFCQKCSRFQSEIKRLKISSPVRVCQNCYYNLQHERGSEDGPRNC

As to “Microtubule-associated protein 1 light chain 3 beta (Homo sapiens) (from UniProt Q9GZQ8) Q26K;H27Y;H57D”, in the assay with wdfy3_human WDFY3, the “effect of a mutation on the interaction” value is listed as “increasing interaction”. On to “WD repeat and FYVE domain-containing protein 3 (Homo sapiens), Q8IZQ1 F3346A”, for which the “effect of a mutation on the interaction” value with mlp3b_human MAP1LC3B is “disrupting interaction”. Take “WD repeat and FYVE domain-containing protein 3 (Homo sapiens), Q8IZQ1 I3347A”: in the assay with mlp3c_human MAP1LC3C [1], the “effect of a mutation on the interaction” value is given as “decreasing interaction”. In the case of “WD repeat and FYVE domain-containing protein 3 (Homo sapiens), Q8IZQ1 V3349A”, the “effect of a mutation on the interaction” value in the assay with mlp3c_human MAP1LC3C [2] is on record as “decreasing interaction”.
